Each block holds one molecule with its values, some of them ahead of it.
Assays:
[1] = biological target: Human CD19, wild-type full-length protein expressed on cells (human) (UniProt P15391); assay: high-throughput flow cytometry, HEK-293T cells transfected with WT CD19; mean of four replicates; empty vector 0
[2] = biological target: Human CD19, wild-type full-length protein expressed on cells (human) (UniProt P15391); assay: high-throughput flow cytometry, HEK-293T cells with WT CD19 vs vector, at 0.25 ug/ml
[3] = biological target: FITC-Labeled human CD19 protein (ACROBiosystem, Cat-CD9-HF251) (human) (UniProt P15391); assay: flow cytometry, ND539 CAR T cells day 9; CD19-FITC protein premixed with anti-CD19 PE (FMC63 clone) 1:3; PE signal read on the cells that hold CD19-FITC by their CAR; competitor CD19 CAR 43 (untransduced 2.95)
[4] = biological target: FITC-Labeled human CD19 protein (ACROBiosystem, Cat-CD9-HF251) (human) (UniProt P15391); assay: flow cytometry, ND539 CAR T cells day 9; CD19-FITC protein premixed with anti-CD19 PE (FMC63 clone) 1:3; PE signal read on the cells that hold CD19-FITC by their CAR; competitor CAR-FMC63 (untransduced 2.95)
[5] = biological target: FITC-Labeled human CD19 protein (ACROBiosystem, Cat-CD9-HF251) (human) (UniProt P15391); assay: flow cytometry, ND539 CAR T cells day 9; CD19-FITC protein premixed with anti-CD19 PE (FMC63 clone) 1:1; PE signal read on the cells that hold CD19-FITC by their CAR; competitor CD19 CAR 52 (untransduced 2.25)
[6] = biological target: FITC-Labeled human CD19 protein (ACROBiosystem, Cat-CD9-HF251) (human) (UniProt P15391); assay: flow cytometry, ND539 CAR T cells day 9; CD19-FITC protein premixed with anti-CD19 PE (FMC63 clone) 1:1; PE signal read on the cells that hold CD19-FITC by their CAR; competitor CAR-FMC63 (untransduced 2.25)
[7] = biological target: FITC-Labeled human CD19 protein (ACROBiosystem, Cat-CD9-HF251) (human) (UniProt P15391); assay: flow cytometry, ND539 CAR T cells day 9; CD19-FITC protein premixed with anti-CD19 PE (FMC63 clone) 1:3; PE signal read on the cells that hold CD19-FITC by their CAR; competitor CD19 CAR 46 (untransduced 2.95)
[8] = biological target: FITC-Labeled human CD19 protein (ACROBiosystem, Cat-CD9-HF251) (human) (UniProt P15391); assay: flow cytometry, ND539 CAR T cells day 9; CD19-FITC protein premixed with anti-CD19 PE (FMC63 clone) 1:1; PE signal read on the cells that hold CD19-FITC by their CAR; competitor CD19 CAR 42 (untransduced 2.25)
[9] = biological target: FITC-Labeled human CD19 protein (ACROBiosystem, Cat-CD9-HF251) (human) (UniProt P15391); assay: flow cytometry, ND539 CAR T cells day 9; CD19-FITC protein premixed with anti-CD19 PE (FMC63 clone) 1:3; PE signal read on the cells that hold CD19-FITC by their CAR; competitor CD19 CAR 42 (untransduced 2.95)
[10] = biological target: FITC-Labeled human CD19 protein (ACROBiosystem, Cat-CD9-HF251) (human) (UniProt P15391); assay: flow cytometry, ND539 CAR T cells day 9; CD19-FITC protein premixed with anti-CD19 PE (FMC63 clone) 1:1; PE signal read on the cells that hold CD19-FITC by their CAR; competitor CD19 CAR 43 (untransduced 2.25)
[11] = biological target: FITC-Labeled human CD19 protein (ACROBiosystem, Cat-CD9-HF251) (human) (UniProt P15391); assay: flow cytometry, ND539 CAR T cells day 9; CD19-FITC protein premixed with anti-CD19 PE (FMC63 clone) 1:1; PE signal read on the cells that hold CD19-FITC by their CAR; competitor CD19 CAR 45 (untransduced 2.25)
[12] = biological target: FITC-Labeled human CD19 protein (ACROBiosystem, Cat-CD9-HF251) (human) (UniProt P15391); assay: flow cytometry, ND539 CAR T cells day 9; CD19-FITC protein premixed with anti-CD19 PE (FMC63 clone) 1:3; PE signal read on the cells that hold CD19-FITC by their CAR; competitor CD19 CAR 52 (untransduced 2.95)
[13] = biological target: FITC-Labeled human CD19 protein (ACROBiosystem, Cat-CD9-HF251) (human) (UniProt P15391); assay: flow cytometry, ND539 CAR T cells day 9; CD19-FITC protein premixed with anti-CD19 PE (FMC63 clone) 1:1; PE signal read on the cells that hold CD19-FITC by their CAR; competitor CD19 CAR 46 (untransduced 2.25)
[14] = biological target: FITC-Labeled human CD19 protein (ACROBiosystem, Cat-CD9-HF251) (human) (UniProt P15391); assay: flow cytometry, ND539 CAR T cells day 9; CD19-FITC protein premixed with anti-CD19 PE (FMC63 clone) 1:3; PE signal read on the cells that hold CD19-FITC by their CAR; competitor CD19 CAR 44 (untransduced 2.95)
[15] = biological target: FITC-Labeled human CD19 protein (ACROBiosystem, Cat-CD9-HF251) (human) (UniProt P15391); assay: flow cytometry, ND539 CAR T cells day 9; CD19-FITC protein premixed with anti-CD19 PE (FMC63 clone) 1:3; PE signal read on the cells that hold CD19-FITC by their CAR; competitor CD19 CAR 45 (untransduced 2.95)
[16] = biological target: FITC-Labeled human CD19 protein (ACROBiosystem, Cat-CD9-HF251) (human) (UniProt P15391); assay: flow cytometry, ND539 CAR T cells day 9; CD19-FITC protein premixed with anti-CD19 PE (FMC63 clone) 1:1; PE signal read on the cells that hold CD19-FITC by their CAR; competitor CD19 CAR 44 (untransduced 2.25)
[17] = biological target: T1, Human CD19, wild-type full-length protein expressed on cells (human, UniProt P15391 20-556); assay: scFv clone screen on NALM6 cells with and without CD19
T1 construct: also called WT CD19; CD19 wild type protein
T1 sequence: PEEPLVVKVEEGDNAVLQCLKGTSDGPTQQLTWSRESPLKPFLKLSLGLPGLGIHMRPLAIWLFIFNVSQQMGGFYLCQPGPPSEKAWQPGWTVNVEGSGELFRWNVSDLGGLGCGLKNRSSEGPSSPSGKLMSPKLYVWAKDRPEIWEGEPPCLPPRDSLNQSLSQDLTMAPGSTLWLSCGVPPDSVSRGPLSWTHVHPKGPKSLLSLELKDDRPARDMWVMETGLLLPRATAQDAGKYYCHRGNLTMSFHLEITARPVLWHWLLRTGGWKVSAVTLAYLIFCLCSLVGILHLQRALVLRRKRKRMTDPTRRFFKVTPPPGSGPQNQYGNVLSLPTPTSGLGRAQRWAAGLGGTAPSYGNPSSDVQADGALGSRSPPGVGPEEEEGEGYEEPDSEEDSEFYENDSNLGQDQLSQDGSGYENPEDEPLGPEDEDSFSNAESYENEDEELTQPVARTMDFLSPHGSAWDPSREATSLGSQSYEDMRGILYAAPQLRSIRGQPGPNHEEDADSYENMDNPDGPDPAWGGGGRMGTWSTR
Source text: To ensure that the up to (30) clones could recognize native CD19 expressed on tumor cells, the clones (scFv) were also screened against NALM6 tumor cell line positive (+) CD19 expression (NALM6 cell line⁺ CD19). CD19 knockout Nalm6 cell line (NALM6 cell line⁻ CD1; or CD19KO Nalm6 cell line) were used as a negative control for the selection. CD19KO Nalm6 cell lines used for the screen were engineered CRISPR knocked-out (KO) Nalm6-CD19KO cells. Clones that bound CD19⁺ NALM6 tumor cells, but not CD19-NALM6 tumor cells (CD19KO) were selected (Step 4).

SIGLEC 7 = biological target: T2, SIGLEC 7 (UniProt Q9Y286 19-357, limits assumed); assay: counter-screen of the scFv clones against SIGLEC (Step 3)
T2 construct: Counter-screen reagent of Step 3
T2 sequence (Q9Y286 19-357 limits assumed): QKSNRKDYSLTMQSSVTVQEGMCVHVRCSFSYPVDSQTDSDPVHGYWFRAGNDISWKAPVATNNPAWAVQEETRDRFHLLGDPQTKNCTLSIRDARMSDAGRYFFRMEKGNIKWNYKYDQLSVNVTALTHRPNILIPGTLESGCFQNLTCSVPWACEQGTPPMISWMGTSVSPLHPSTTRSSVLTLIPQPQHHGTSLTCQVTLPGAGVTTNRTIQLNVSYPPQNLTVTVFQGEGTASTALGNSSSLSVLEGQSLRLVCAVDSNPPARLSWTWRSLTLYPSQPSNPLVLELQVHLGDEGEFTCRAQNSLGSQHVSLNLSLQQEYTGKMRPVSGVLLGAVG

SIGLEC 8 = biological target: T3, SIGLEC 8 (UniProt Q9NYZ4 17-363, limits assumed); assay: as above
T3 construct: Counter-screen reagent of Step 3
T3 sequence (Q9NYZ4 17-363 limits assumed): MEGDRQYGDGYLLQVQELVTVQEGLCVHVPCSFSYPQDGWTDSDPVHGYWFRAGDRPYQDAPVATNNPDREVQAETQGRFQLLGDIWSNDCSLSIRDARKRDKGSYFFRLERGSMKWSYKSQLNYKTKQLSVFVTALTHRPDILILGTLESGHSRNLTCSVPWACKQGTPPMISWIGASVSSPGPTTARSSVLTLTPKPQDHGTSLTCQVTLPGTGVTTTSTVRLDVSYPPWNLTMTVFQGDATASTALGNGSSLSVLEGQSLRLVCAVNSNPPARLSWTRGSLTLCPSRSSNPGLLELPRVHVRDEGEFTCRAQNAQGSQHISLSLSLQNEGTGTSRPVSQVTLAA

SIGLEC 9 = biological target: T4, SIGLEC 9 (UniProt Q9Y336 18-348, limits assumed); assay: as above
T4 construct: Counter-screen reagent of Step 3
T4 sequence (Q9Y336 18-348 limits assumed): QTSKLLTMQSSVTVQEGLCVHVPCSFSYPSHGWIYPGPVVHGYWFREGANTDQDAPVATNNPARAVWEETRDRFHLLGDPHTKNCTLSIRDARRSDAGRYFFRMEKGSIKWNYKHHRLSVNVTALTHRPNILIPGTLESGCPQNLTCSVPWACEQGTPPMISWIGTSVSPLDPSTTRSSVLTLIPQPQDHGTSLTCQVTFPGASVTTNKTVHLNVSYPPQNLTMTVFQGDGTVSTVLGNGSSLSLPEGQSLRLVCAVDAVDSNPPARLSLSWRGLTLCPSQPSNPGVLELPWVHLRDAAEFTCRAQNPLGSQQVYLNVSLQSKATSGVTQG

mfi at 0.125 ug/ml [1]: 500000 mfi
mfi at 0.250 ug/ml [1]: 750000 mfi
mfi at 0.500 ug/ml [1]: 1.25e+06 mfi
mfi at 1.000 ug/ml [1]: 1.75e+06 mfi
mfi at 2.000 ug/ml [1]: 1.75e+06 mfi
mfi at 4.000 ug/ml [1]: 2e+06 mfi
Signal:Background [2]: 50
Molecule: HIB19 monoclonal antibody (BioLegend, Cat no. 302202)

Gated for Anti-CD19 PE Expression [3]: 0.97 mfi
Gated for Anti-CD19 PE Expression [4]: 1.63 mfi
Gated for Anti-CD19 PE Expression [5]: 3.29 mfi
Gated for Anti-CD19 PE Expression [6]: 0.8 mfi
Gated for Anti-CD19 PE Expression [7]: 0.78 mfi
Gated for Anti-CD19 PE Expression [8]: 0.045 mfi
Gated for Anti-CD19 PE Expression [9]: 0.48 mfi
Gated for Anti-CD19 PE Expression [10]: 0.041 mfi
Gated for Anti-CD19 PE Expression [11]: 15.9 mfi
Gated for Anti-CD19 PE Expression [12]: 2.35 mfi
Gated for Anti-CD19 PE Expression [13]: 0.12 mfi
Gated for Anti-CD19 PE Expression [14]: 1.26 mfi
Gated for Anti-CD19 PE Expression [15]: 18.1 mfi
Gated for Anti-CD19 PE Expression [16]: 1.73 mfi
Molecule: Anti CD19 (FMC63 Clone)-PE (antibody)

binding result [17]: binds
binding result (SIGLEC 7): no binding
binding result (SIGLEC 8): no binding
binding result (SIGLEC 9): no binding
B1: CD19 E7 scFv (P4) (scFv)
scFv: DIQMTQSPSSLSASVGDRVTITCRASQDITRYLNWYQQKPGKAPKLLIYAASSLQSGVPSRFSGSGSGTDFTLTISSLQPEDFATYYCQQSYSYPPTFGQGTKVEIKGGGGSGGGGSGGGGSQVQLVESGGGVVQPGRSLRLSCAASGFTFRDYGMHWVRQAPGKGLEWVAVISYEGSNEYYADSVKGRFTISRDNSKNTLYLQMNSLRAEDTAVYYCARDRGFAGWYDYAFDPWGQGTLVTVSS
notes: also called 45; clone 45
